# Measurements: patent US11752210B2, “Sensitizing composition using electromagnetic waves for thermal therapy of cancers, and cancer therapy using same” (JINIS CO., LTD., priority 2013, dated 2023)
# Key:
# [1] = test system: cancer cell line NCI-H460; assay: In vitro temperature elevation in cancer cells cultured with transferrin, after electromagnetic waves (Test Example 4); format: cell-based; conditions: for increase in temperature before and after electromagnetic waves: cancer cell line, cultured 4 hr, washed, 100 W for 3 min
# Protocol: (§1) The temperature elevation by the metal ion-noncovalently bound apotransferrin was evaluated through in vitro cell testing. A cancer cell line […] Sciences) in which the transferrin receptor was over-expressed was cultured, and 0.1 ml of a cell suspension at a concentration of 1×10^3 cells/ml was aliquoted into a 96-well plate and cultured in a CO2 incubator at 37° C. for 12 hr. As a control, normal human cells, i.e. stromal cells, were cultured, and 0.1 ml thereof was aliquoted at a concentration of 3×10^3 cells/ml into a 96-well plate and cultured in a CO2 incubator at 37° C. for 12 hr. […] After completion of the culturing of transferrin and cells, each plate was washed with a DMEM medium, thus removing transferrin that was not introduced into the cells. Next, each plate was exposed to an energy dose of 100 W for 3 min using a radio-frequency hyperthermia system (EHY-2000, Oncothermia), and changes in the temperature were measured using a thermal imaging camera ([…], Korea Rental, Korea).
# [2] = test system: normal human cells, i.e. stromal cells; assay: In vitro temperature elevation in normal cells cultured with transferrin, after electromagnetic waves (Test Example 4); format: cell-based; conditions: normal cell line; all concentrations (0 to 5 mg/ml); cultured 4 hr, washed; 100 W for 3 min
# Protocol: as §1
# [3] = In vivo accumulation of iron ion in normal and tumorous tissue after transferrin, ICP-MS (Test Example 6); set-up: species or system BALB/c athymic nude mice; concentration of iron ion (ICP-MS): unit not given here; conditions: 16 mg/kg i.v., after 24 hr
# Protocol: In order to evaluate the accumulation capacity of “metal ion-noncovalently bound apotransferrin” (transferrin) in tumorous tissue, the iron-bound transferrin aqueous solution was administered to the mice, after which the concentrations of the metal ions were measured in normal tissue and tumorous tissue. The iron ion-bound apotransferrin (transferrin) aqueous solution was prepared at 4 mg/ml, and 0.1 ml thereof was intravenously injected in a dose of 16 mg/kg. After 24 hr, each tissue was sampled in the same manner as in Test Example 5 and the concentration of the metal ion was measured through ICP-MS (Varian 800-MS, Palo Alto, US).
# [4] = test system: NCI-H460-luc2 tumor xenograft; assay: Temperature of normal and tumorous tissue of tumor xenograft mice on application of electromagnetic waves after sensitizer (Example 1, FIGS. 9 to 11); format: in vivo, BALB/c athymic nude mice; conditions: i.v. iron sucrose 1 mg/kg or transferrin 20 mg/kg, 4 hr after administration, 100 W for 3 min
# Protocol: To this end, a lung cancer cell line NCI-H460-luc2 (Califer Life Sciences) was cultured, and 5×10^6 cells were subcutaneously injected into 6 to 8-week-old female BALB/c athymic nude mice (Damul Science), and the mice were bred for about 10 days so as to grow tumorous tissue to a size of 100 mm^3 or more, yielding the tumor xenograft animal models for the evaluation of cancer treatment effects.
# As the sensitizing composition for thermal therapy, iron sucrose was prepared in the same manner as in Test Example 1, and 0.1 ml of the iron sucrose aqueous solution having a concentration of 0.2 mg/ml was intravenously injected into the established tumor xenograft mice so as to reach a dose of 1 mg/kg.
# As the sensitizing composition for thermal therapy, “iron ion-bound apotransferrin” (transferrin) was prepared in the same manner as in Test Example 3, and 0.1 ml of the transferrin aqueous solution having a concentration of 5 mg/ml was intravenously injected into the established tumor xenograft mice so as to reach a dose of 20 mg/kg.
# As the control, saline was administered. 4 hr after administration, electromagnetic waves were applied in an energy dose of 100 W for 3 min using a radio-frequency hyperthermia system (EHY-2000, Oncothermia), and the temperatures of normal tissue and tumorous tissue were measured using a thermal imaging device (E60, Korea Rental, Korea).
# [5] = test system: NCI-H460-luc2 tumor xenograft; assay: Thermal cancer therapy with sensitizer, bioluminescence imaging of tumor size in the last week (Example 1, FIG. 12); format: in vivo, BALB/c athymic nude mice; conditions: i.v. 1 mg/kg metal ion-bound material or 20 mg/kg transferrin, 100 W 10 min, three times per week, four weeks
# Protocol: Next, the potential to treat cancer was evaluated using the metal ion-bound material as the sensitizer upon thermal therapy. A lung cancer cell line NCI-H460-luc2 ([…] Sciences) was cultured, and 5×10^6 cells were subcutaneously injected into 6 to 8-week-old female BALB/c athymic nude mice (Damul Science), and the mice were bred for about 10 days so as to grow tumorous tissue to a size of 100 mm^3 or more, yielding the tumor xenograft animal models for the evaluation of cancer treatment effects. […] After 4 hr, thermal treatment was performed three times per week for a total of four weeks using a radio-frequency hyperthermia system (EHY-2000, Oncothermia) with an energy dose of 100 W for 10 min. As such, a non-treated group and a saline-treated group were set as controls. In order to analyze the size of tumorous tissue in the last week, bioluminescence imaging was performed. For bioluminescence of a luciferase-expressing cancer cell line NCI-H460-luc2, D-luciferin (Xenogen, USA) was intraperitoneally injected at a concentration of 150 mg luciferin/kg/d into the mice, the mice were anesthetized through inhalation using a mixture of isoflurane gas and oxygen, and luminous cancer cells were subjected to overlap photographing using a Xenogen imager (IVIS 200), and analyzed using Igor Pro imaging analysis software.
# [6] = test system: NCI-H460-luc2 tumor xenograft; assay: Thermal cancer therapy with repeated sensitizer dosing, weekly bioluminescence imaging of tumor size over four weeks (Example 1, FIG. 13); format: in vivo, BALB/c athymic nude mice; conditions: i.v. three times per week, 100 W 30 min or more
# Protocol: After 4 hr, thermal treatment for 30 min or more using a radio-frequency hyperthermia system (EHY-2000, Oncothermia) with an energy dose of 100 W was performed for a total of four weeks, and the size of tumorous tissue was monitored every week. […] In the group to which transferrin was administered, 0.1 ml of the transferrin aqueous solution having a concentration of 5 mg/ml was intravenously injected. As such, the non-treated group and the saline-treated group were used as controls.
# In order to analyze the size of tumorous tissue, bioluminescence imaging was regularly performed at an interval of one week, and analysis was performed using Igor Pro imaging analysis software.
substance,measurement,setting,value
transferrin: iron ion-bound apotransferrin prepared by reacting ferric hydroxide solution with apotransferrin at 37° C. for 30 min,"selectivity of temperature elevation depending on concentration, cancer vs normal cell line",[1]; FIGS. 5 to 8,more selective in the cancer cell line than in the normal cell line
same,increase in temperature before and after electromagnetic waves,[1]; 1 mg/ml,11.9 °C
same,increase in temperature before and after electromagnetic waves,[1]; 5 mg/ml,12.6 °C
same,change in temperature before and after electromagnetic waves,[2],about 7 °C
same,Fold increase of iron ion vs saline,[3]; Brain,1.26
same,concentration of iron ion (ICP-MS),[3]; Brain,28.4 ± 3.5
same,Fold increase of iron ion vs saline,[3]; Heart,2.18
same,concentration of iron ion (ICP-MS),[3]; Heart,70.1 ± 12.3
same,Fold increase of iron ion vs saline,[3]; Kidney,0.72
same,concentration of iron ion (ICP-MS),[3]; Kidney,41.2 ± 1.7
same,Fold increase of iron ion vs saline,[3]; Liver,1.27
same,concentration of iron ion (ICP-MS),[3]; Liver,94.7 ± 8.1
same,Fold increase of iron ion vs saline,[3]; Lung,1.55
same,concentration of iron ion (ICP-MS),[3]; Lung,43.9 ± 17.9
same,Fold increase of iron ion vs saline,[3]; Muscle,0.87
same,concentration of iron ion (ICP-MS),[3]; Muscle,25.7 ± 5.2
same,Fold increase of iron ion vs saline,[3]; Stomach,1.67
same,concentration of iron ion (ICP-MS),[3]; Stomach,46.4 ± 14.9
same,concentration of iron ion (ICP-MS),[3]; Tumor,43.9 ± 9.7
same,Fold increase of iron ion vs saline,"[3]; Tumor, 16 mg/kg",≥ 3.2
same,Fold increase of iron ion vs saline,"[3]; Tumor, listed as Transferrin, 16 mg/kg",3.25
same,changes in the temperature before and after the application of electromagnetic waves,[4]; normal tissue,1 °C
same,changes in the temperature before and after the application of electromagnetic waves,[4]; tumorous tissue,2 °C
same,"cancer treatment effects through thermal therapy (size of tumorous tissue, bioluminescence imaging)",[5],excellent
same,growth of cancer upon thermal treatment using electromagnetic waves (bioluminescence imaging),"[6]; 0.1 ml of 0.2 mg/ml (iron dextran, iron sucrose) or 5 mg/ml (transferrin), four weeks",remarkably inhibited
same,size of cancer after four weeks (bioluminescence imaging),"[6]; 0.1 ml of 5 mg/ml, after four weeks",disappeared completely
